Assay results taken from publication PMC6985235.

Assays:
Myb3 (endogenous) = experiment: co-immunoprecipitation with anti-HA antibody, Western blotting; details: for ratio to parent: three experiments
[1] = molecular target: binding immunoglobulin protein (TvBip); experiment: as above; details: three experiments
[2] = molecular target: heat shock protein 72 (TvHSP72); experiment: as above; details: three experiments
[3] = molecular target: hydrogenosomal heat shock protein 70 (HdHSP70); experiment: as above; details: total lysate, three experiments
TvMyb3IPhmw = experiment: as above; details: P100 fraction; three experiments
[4] = molecular target: His-TvCyP2 (Trichomonas vaginalis) (UniProt A2DLL4); experiment: ITC

| Kd [4] [µM] | Substance | ratio to parent (Myb3 (endogenous); total lysate, ** p < 0.01) | ratio to parent ([1]; total lysate) | ratio to parent ([2]; total lysate, ** p < 0.01) | ratio to parent ([3]; ** p < 0.01) | other: relative signal intensity (Myb3 (endogenous)) | ratio to parent (Myb3 (endogenous); P15 fraction, * p < 0.05) | ratio to parent (Myb3 (endogenous); P100 fraction, ** p < 0.01) | ratio to parent (TvMyb3IPhmw) | ratio to parent ([1]; P15 fraction) | ratio to parent ([1]; P100 fraction) | ratio to parent ([1]; total lysate, ** p < 0.01) | ratio to parent ([2]; P100 fraction, * p < 0.05) | ratio to parent ([2]; S100 fraction, ** p < 0.01) | ratio to parent [3] |
| --- | --- | --- | --- | --- | --- | --- | --- | --- | --- | --- | --- | --- | --- | --- | --- |
|  | HA-TvCyP1 (from UniProt A2DT06) R63A | 0.6 | 1 | 0.5 | 0.1 |  |  |  |  |  |  |  |  |  |  |
|  | HA-TvCyP2 (from UniProt A2DLL4) R75A | 0.4 |  | 1.6 |  | 0.1 | 0.7 | 0.5 | 1 | 1 | 1 | 0 | 0.7 | 0.6 | 0.9 |
| 55 | His-Myb3^53–180 (domain or fragment) |  |  |  |  |  |  |  |  |  |  |  |  |  |  |
